Assay results taken from article PMC4332406.

Target: Human α-defensin 5 (human)
Assay: SPR

molar ratio: 1 | stoichiometry N: 2
Substance: Human α-defensin 5 (peptide)
